Patent publication US20190233477A1

Assays:
[1] = biological target: NRPS Roquefortine/meleagrin synthesis protein A RoqA (Penicillium chrysogenum)
[2] = biological target: NRPS N-(5-amino-5-carboxypentanoyl)-L-cysteinyl-D-valine synthase PcbAB (Penicillium chrysogenum)
[3] = biological target: NRPS Pc21g12630 protein ChyA (Penicillium chrysogenum)

MbtH-like protein Tcp13 from the teicoplanin biosynthesis cluster from Actinoplanes teichomyceticus, sequence (chain): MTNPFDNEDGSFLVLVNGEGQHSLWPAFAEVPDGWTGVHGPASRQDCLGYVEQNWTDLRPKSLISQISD
MbtH-like homologue identified in the Veg biosynthesis cluster obtainable from an uncultured soil bacterium, called VEG8, sequence (chain): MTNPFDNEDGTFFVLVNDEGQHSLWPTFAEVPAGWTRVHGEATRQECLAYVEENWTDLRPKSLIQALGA

Substance: MbtH-like homologue SCO0489 from the calcium dependent antibiotic (CDA) biosynthesis cluster from Streptomyces coelicolor, called CDAI
- relative productivity of HTD (roquefortine cluster), day 2, strain DS47274, transformant 9-5, LC/MS, untransformed strain set to 1.0 (fold of the untransformed strain (1.0)) [1]: 4.48
- relative productivity of LLD-ACV (penicillin cluster), day 5, strain DS47274, transformant 9-5, LC/MS, untransformed strain set to 1.0 (fold of the untransformed strain (1.0)) [2]: 12.5
- relative productivity of Chrysogenin 12 (chrysogenin cluster), day 5, strain DS47274, transformant 9-4, LC/MS, untransformed strain set to 1.0 (fold of the untransformed strain (1.0)) [3]: 413

Substance: MbtH-like homologue from the complestatine biosynthesis cluster from Streptomyces lavendulae, called COM
- relative productivity of HTD (roquefortine cluster), day 2, strain DS47274, transformant 8-4, LC/MS, untransformed strain set to 1.0 (fold of the untransformed strain (1.0)) [1]: 2.32
- relative productivity of LLD-ACV (penicillin cluster), day 5, strain DS47274, transformant 7-3, LC/MS, untransformed strain set to 1.0 (fold of the untransformed strain (1.0)) [2]: 22.7
- relative productivity of Chrysogenin 12 (chrysogenin cluster), day 5, strain DS47274, transformant 7-3, LC/MS, untransformed strain set to 1.0 (fold of the untransformed strain (1.0)) [3]: 317

Substance: MbtH-like homologue identified in the Teg biosynthesis cluster obtainable from an uncultured soil bacterium, called TEG
- relative productivity of HTD (roquefortine cluster), day 2, strain DS47274, transformant 11-5, LC/MS, untransformed strain set to 1.0 (fold of the untransformed strain (1.0)) [1]: 9.35
- relative productivity of LLD-ACV (penicillin cluster), day 5, strain DS47274, transformant 11-5, LC/MS, untransformed strain set to 1.0 (fold of the untransformed strain (1.0)) [2]: 10.9
- relative productivity of Chrysogenin 12 (chrysogenin cluster), day 5, strain DS47274, transformant 11-5, LC/MS, untransformed strain set to 1.0 (fold of the untransformed strain (1.0)) [3]: 266

Substance: MbtH-like homologue identified in the Veg biosynthesis cluster obtainable from an uncultured soil bacterium, called VEG8
- relative productivity of HTD (roquefortine cluster), day 2, strain DS47274, transformant 12-4, LC/MS, untransformed strain set to 1.0 (fold of the untransformed strain (1.0)) [1]: 2.9
- relative productivity of LLD-ACV (penicillin cluster), day 5, strain DS47274, transformant 12-4, LC/MS, untransformed strain set to 1.0 (fold of the untransformed strain (1.0)) [2]: 2.32
- relative productivity of Chrysogenin 12 (chrysogenin cluster), day 5, strain DS47274, transformant 12-4, LC/MS, untransformed strain set to 1.0 (fold of the untransformed strain (1.0)) [3]: 189

Substance: MbtH-like protein Tcp13 from the teicoplanin biosynthesis cluster from Actinoplanes teichomyceticus
- relative productivity of HTD (roquefortine cluster), day 2, strain DS47274, transformant 10-2, LC/MS, untransformed strain set to 1.0 (fold of the untransformed strain (1.0)) [1]: 2.64
- relative productivity of LLD-ACV (penicillin cluster), day 5, strain DS47274, transformant 10-2, LC/MS, untransformed strain set to 1.0 (fold of the untransformed strain (1.0)) [2]: 16.1
- relative productivity of Chrysogenin 12 (chrysogenin cluster), day 5, strain DS47274, transformant 10-5, LC/MS, untransformed strain set to 1.0 (fold of the untransformed strain (1.0)) [3]: 465
